Measured values reported in patent US20110091463A1 (AbbVie / Abbott, published 2011).

Key:
[1] = target: IL-1β (MRC5 bioassay); assay: cell-based or functional assay
[2] = target: NGF (Neuroscreen-1 bioassay); assay: cell-based or functional assay
[3] = target: T1, Recombinant Human IL-1β (human, UniProt P01584 117-269); assay: SPR (Biacore), DVD-Ig captured on chip, antigen injected, 25 C
T1 construct: Bought reagent; also called IL-1b; Il-1b
Method: The BIACORE assay (Biacore, Inc, Piscataway, N.J.) determines the affinity of antibodies or DVD-Ig with kinetic measurements of on-rate and off-rate constants. Binding of antibodies or DVD-Ig to a target antigen (for example, a purified recombinant target antigen) is determined by surface plasmon resonance-based measurements with a Biacore® 1000 or 3000 instrument (Biacore® AB, Uppsala, Sweden) using running HBS-EP (10 mM HEPES [pH 7.4], 150 mM NaCl, 3 mM EDTA, and 0.005% surfactant P20) at 25° C. All chemicals are obtained from Biacore® AB (Uppsala, Sweden) or otherwise from a different source as described in the text. For example, approximately 5000 RU of goat anti-mouse IgG, (Fcγ), fragment specific polyclonal antibody (Pierce Biotechnology Inc, Rockford, Ill.) diluted in 10 mM sodium acetate (pH 4.5) is directly immobilized across a CM5 research grade biosensor chip using a standard amine coupling kit according to manufacturer's instructions and procedures at 25 μg/ml. Unreacted moieties on the biosensor surface are blocked with ethanolamine. Modified carboxymethyl dextran surface in flowcell 2 and 4 is used as a reaction surface. Unmodified carboxymethyl dextran without goat anti-mouse IgG in flow cell 1 and 3 is used as the reference surface. For kinetic analysis, rate equations derived from the 1:1 Langmuir binding model are fitted simultaneously to association and dissociation phases of all eight injections (using global fit analysis) with the use of Biaevaluation 4.0.1 software. Purified antibodies or DVD-Ig are diluted in HEPES-buffered saline for capture across goat anti-mouse IgG specific reaction surfaces. […] The association and dissociation rate constants, kₒₙ (M⁻¹ s⁻¹) and koff (s⁻¹) are determined under a continuous flow rate of 25 μl/min. […] The equilibrium dissociation constant (M) of the reaction between antibodies or DVD-Igs and the target antigen is then calculated from the kinetic rate constants by the following formula: KD=koff/kₒₙ. Binding is recorded as a function of time and kinetic rate constants are calculated.

[4] = target: T2, IL-6R on TF-1 cells (UniProt P08887 20-468, limits assumed); assay: cell-based or functional assay
T2 sequence (looked up): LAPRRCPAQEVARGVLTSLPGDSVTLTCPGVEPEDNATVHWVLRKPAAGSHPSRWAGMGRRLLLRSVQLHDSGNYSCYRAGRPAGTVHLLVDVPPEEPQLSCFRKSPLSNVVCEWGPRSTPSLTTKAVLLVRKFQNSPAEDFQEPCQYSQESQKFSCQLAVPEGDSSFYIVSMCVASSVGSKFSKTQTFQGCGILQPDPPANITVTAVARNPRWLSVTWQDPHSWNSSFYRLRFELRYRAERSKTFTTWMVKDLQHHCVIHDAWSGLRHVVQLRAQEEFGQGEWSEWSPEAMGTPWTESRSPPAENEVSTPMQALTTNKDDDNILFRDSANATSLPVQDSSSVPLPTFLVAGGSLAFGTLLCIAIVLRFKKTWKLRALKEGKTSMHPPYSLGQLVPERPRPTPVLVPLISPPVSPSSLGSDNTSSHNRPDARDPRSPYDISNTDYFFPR

[5] = target: T3, Recombinant Human IL-6 sR (human, UniProt P08887 20-358, limits assumed); assay: SPR (Biacore), antibody captured on chip, antigen injected, 25 C
T3 construct: Bought soluble receptor ('sR'); also called IL-6R
T3 sequence (looked up): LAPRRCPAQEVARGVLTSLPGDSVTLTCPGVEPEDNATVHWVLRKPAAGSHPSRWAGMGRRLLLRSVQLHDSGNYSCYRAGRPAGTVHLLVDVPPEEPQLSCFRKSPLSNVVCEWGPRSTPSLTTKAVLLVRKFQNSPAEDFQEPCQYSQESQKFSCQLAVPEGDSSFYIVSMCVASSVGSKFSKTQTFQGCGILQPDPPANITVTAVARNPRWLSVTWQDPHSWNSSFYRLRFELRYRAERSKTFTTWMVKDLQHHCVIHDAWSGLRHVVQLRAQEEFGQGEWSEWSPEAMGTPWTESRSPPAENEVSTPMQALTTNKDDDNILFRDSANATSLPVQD
Method: (§1) The BIACORE assay (Biacore, Inc, Piscataway, N.J.) determines the affinity of antibodies or DVD-Ig with kinetic measurements of on-rate and off-rate constants. Binding of antibodies or DVD-Ig to a target antigen (for example, a purified recombinant target antigen) is determined by surface plasmon resonance-based measurements with a Biacore® 1000 or 3000 instrument (Biacore® AB, Uppsala, Sweden) using running HBS-EP (10 mM HEPES [pH 7.4], 150 mM NaCl, 3 mM EDTA, and 0.005% surfactant P20) at 25° C. All chemicals are obtained from Biacore® AB (Uppsala, Sweden) or otherwise from a different source as described in the text. For example, approximately 5000 RU of goat anti-mouse IgG, (Fcγ), fragment specific polyclonal antibody (Pierce Biotechnology Inc, Rockford, Ill.) diluted in 10 mM sodium acetate (pH 4.5) is directly immobilized across a CM5 research grade biosensor chip using a standard amine coupling kit according to manufacturer's instructions and procedures at 25 μg/ml. Unreacted moieties on the biosensor surface are blocked with ethanolamine. Modified carboxymethyl dextran surface in flowcell 2 and 4 is used as a reaction surface. Unmodified carboxymethyl dextran without goat anti-mouse IgG in flow cell 1 and 3 is used as the reference surface. For kinetic analysis, rate equations derived from the 1:1 Langmuir binding model are fitted simultaneously to association and dissociation phases of all eight injections (using global fit analysis) with the use of Biaevaluation 4.0.1 software. Purified antibodies or DVD-Ig are diluted in HEPES-buffered saline for capture across goat anti-mouse IgG specific reaction surfaces. Antibodies or DVD-Ig to be captured as a ligand (25 μg/ml) are injected over reaction matrices at a flow rate of 5 μl/min. The association and dissociation rate constants, kₒₙ (M⁻¹ s⁻¹) and koff (s⁻¹) are determined under a continuous flow rate of 25 μl/min. Rate constants are derived by making kinetic binding measurements at different antigen concentrations ranging from 10-200 nM. The equilibrium dissociation constant (M) of the reaction between antibodies or DVD-Igs and the target antigen is then calculated from the kinetic rate constants by the following formula: KD=koff/kₒₙ. Binding is recorded as a function of time and kinetic rate constants are calculated.

[6] = target: T4, Recombinant Human β-NGF (human, UniProt P01138 122-241); assay: as above
T4 construct: Bought reagent
T4 sequence (P01138 122-241 limits assumed): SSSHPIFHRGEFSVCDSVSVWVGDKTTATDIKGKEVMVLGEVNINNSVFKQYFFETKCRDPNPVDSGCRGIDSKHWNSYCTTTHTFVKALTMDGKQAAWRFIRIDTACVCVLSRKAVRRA
Method: as §1

NGF (Neuroscreen-1 bioassay), sequence (P01138 122-241): as the sequence (P01138 122-241 limits assumed) above
IL-1β (MRC5 bioassay), sequence (P01584 117-269): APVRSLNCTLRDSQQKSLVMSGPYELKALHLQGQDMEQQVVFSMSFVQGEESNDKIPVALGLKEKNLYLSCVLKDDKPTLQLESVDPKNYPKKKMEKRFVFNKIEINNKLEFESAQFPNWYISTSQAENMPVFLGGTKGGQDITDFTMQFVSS

B1: DVD950 (bispecific antibody, human IgG1, kappa)
heavy: not shown
light: DIQMTQSPSSLSASVGDRVTITCRASGNIHNYLTWYQQTPGKAPKLLIYNAKTLADGVPSRFSGSGSGTDYTFTISSLQPEDIATYYCQHFWSIPYTFGQGTKLQITTVAAPDIQMTQSPSSLSASVGDRVTITCRASEDIYNALAWYQQKPGKAPKLLIYNTDTLHTGVPSRFSGSGSGTDYTLTISSLQPEDFATYFCQHYFHYPRTFGQGTKVEIKRTVAAPSVFIFPPSDEQLKSGTASVVCLLNNFYPREAKVQWKVDNALQSGNSQESVTEQDSKDSTYSLSSTLTLSKADYEKHKVYACEVTHQGLSSPVTKSFNRGEC
notes: DVD-Ig; also called DVD950H; DVD950L
- C-Terminal VD IL-1β Neutralization Assay EC50 nM (IL-8 release by MRC5 cells) [1]: 26 nM
- C-Terminal VD NGF Inhibition Assay EC50 pM (ERK1/2 phosphorylation in Neuroscreen-1 cells) [2]: 316 pM
- Kd [3]: 0.495 nM
- koff [3]: 0.000487 s⁻¹
- kon [3]: 983000 M⁻¹ s⁻¹

B2: DVD933 (bispecific antibody, human IgG1, kappa)
heavy: not shown
light: DIQMTQSPSSLSASVGDRVTITCRASEDIYNALAWYQQKPGKAPKLLIYNTDTLHTGVPSRFSGSGSGTDYTLTISSLQPEDFATYFCQHYFHYPRTFGQGTKVEIKRTVAAPDVLMTQTPLSLPVTPGEPASISCTSSQNIVHSNGNTYLEWYLQKPGQSPQLLIYKVSNRFSGVPDRFSGSGSGTDFTLKISRVEAEDVGVYYCFQVSHVPYTFGGGTKVEIKRTVAAPSVFIFPPSDEQLKSGTASVVCLLNNFYPREAKVQWKVDNALQSGNSQESVTEQDSKDSTYSLSSTLTLSKADYEKHKVYACEVTHQGLSSPVTKSFNRGEC
- N-Terminal VD NGF Inhibition Assay EC50 pM (ERK1/2 phosphorylation in Neuroscreen-1 cells) [2]: 49 pM

B3: DVD934 (bispecific antibody, human IgG1, kappa)
heavy: not shown
light: DVLMTQTPLSLPVTPGEPASISCTSSQNIVHSNGNTYLEWYLQKPGQSPQLLIYKVSNRFSGVPDRFSGSGSGTDFTLKISRVEAEDVGVYYCFQVSHVPYTFGGGTKVEIKRTVAAPDIQMTQSPSSLSASVGDRVTITCRASEDIYNALAWYQQKPGKAPKLLIYNTDTLHTGVPSRFSGSGSGTDYTLTISSLQPEDFATYFCQHYFHYPRTFGQGTKVEIKRTVAAPSVFIFPPSDEQLKSGTASVVCLLNNFYPREAKVQWKVDNALQSGNSQESVTEQDSKDSTYSLSSTLTLSKADYEKHKVYACEVTHQGLSSPVTKSFNRGEC
- C-Terminal VD NGF Inhibition Assay EC50 pM (ERK1/2 phosphorylation in Neuroscreen-1 cells) [2]: > 5000 pM

B4: DVD1207 (bispecific antibody, human IgG1, kappa)
heavy: not shown
light: DIQMTQSPSSLSASVGDRVTITCRASQDISSYLNWYQQKPGKAPKLLIYYTSRLHSGVPSRFSGSGSGTDFTFTISSLQPEDIATYYCQQGNTLPYTFGQGTKVEIKRTVAAPDIQMTQSPSSLSASVGDRVTITCRASEDIYNALAWYQQKPGKAPKLLIYNTDTLHTGVPSRFSGSGSGTDYTLTISSLQPEDFATYFCQHYFHYPRTFGQGTKVEIKRTVAAPSVFIFPPSDEQLKSGTASVVCLLNNFYPREAKVQWKVDNALQSGNSQESVTEQDSKDSTYSLSSTLTLSKADYEKHKVYACEVTHQGLSSPVTKSFNRGEC
- N-Terminal VD IL-6 Inhibition Assay EC50 µM (IL-6 induced pSTAT3 in TF-1 cells) [4]: 0.089 µM
- C-Terminal VD NGF Inhibition Assay EC50 pM (ERK1/2 phosphorylation in Neuroscreen-1 cells) [2]: > 5000 pM

B5: DVD949 (bispecific antibody, human IgG1, kappa)
heavy: not shown
light: DIQMTQSPSSLSASVGDRVTITCRASEDIYNALAWYQQKPGKAPKLLIYNTDTLHTGVPSRFSGSGSGTDYTLTISSLQPEDFATYFCQHYFHYPRTFGQGTKVEIKRTVAAPDIQMTQSPSSLSASVGDRVTITCRASGNIHNYLTWYQQTPGKAPKLLIYNAKTLADGVPSRFSGSGSGTDYTFTISSLQPEDIATYYCQHFWSIPYTFGQGTKLQITTVAAPSVFIFPPSDEQLKSGTASVVCLLNNFYPREAKVQWKVDNALQSGNSQESVTEQDSKDSTYSLSSTLTLSKADYEKHKVYACEVTHQGLSSPVTKSFNRGEC
- N-Terminal VD IL-1β Neutralization Assay EC50 nM (IL-8 release by MRC5 cells) [1]: 0.148 nM
- N-Terminal VD NGF Inhibition Assay EC50 pM (ERK1/2 phosphorylation in Neuroscreen-1 cells) [2]: 55 pM

B6: AB054 (antibody, V domains shown)
VH: EVQLQESGPGLVRPSQTLSLTCTVSGYSITSDHAWSWVRQPPGRGLEWIGYISYSGITTYNPSLKSRVTMLRDTSKNQFSLRLSSVTAADTAVYYCARSLARTTAMDYWGQGSLVTVSS
VL: DIQMTQSPSSLSASVGDRVTITCRASQDISSYLNWYQQKPGKAPKLLIYYTSRLHSGVPSRFSGSGSGTDFTFTISSLQPEDIATYYCQQGNTLPYTFGQGTKVEIKR
notes: Parent antibody; also called IL-6R parent antibody; AB054VH
- IL-6 Inhibition Assay EC50 µM (IL-6 induced pSTAT3 in TF-1 cells) [4]: 0.07 µM
- Kd [5]: 0.614 nM
- koff [5]: 0.000206 s⁻¹
- kon [5]: 336000 M⁻¹ s⁻¹

B7: AB020 (antibody, V domains shown)
VH: QVQLQESGPGLVKPSETLSLTCTVSGFSLIGYDLNWIRQPPGKGLEWIGIIWGDGTTDYNSAVKSRVTISKDTSKNQFSLKLSSVTAADTAVYYCARGGYWYATSYYFDYWGQGTLVTVSS
VL: DIQMTQSPSSLSASVGDRVTITCRASQSISNNLNWYQQKPGKAPKLLIYYTSRFHSGVPSRFSGSGSGTDFTFTISSLQPEDIATYYCQQEHTLPYTFGQGTKLEIKR
notes: Parent antibody; also called AB020VH
- Kd [6]: 6.73 pM
- koff [6]: 4.08e-06 s⁻¹
- kon [6]: 606000 M⁻¹ s⁻¹
